# Experimental data taken from article PMC3017539, “Crystal Structure of Escherichia coli CusC, the Outer Membrane Component of a Heavy Metal Efflux Pump” (PLoS ONE, 2011).
# Molecular target: the molecule itself
# Experiment: SEC; gel filtration (Superdex-200) in 10 mM Na-acetate/50 mM NaCl/10% glycerol/0.05% DDM pH 5; oligomer judged from the elution position
protein,measurement,value
"CusC, the outer membrane component of the Cus heavy metal efflux pump (natural protein, E. coli, UniProt P77211 18-457, looked up, three partial acyl chains attached to Cys1 (most likely triacylated at the N-terminal cysteine with N-acyl and S-diacylglycerol functions), CusC of Escherichia coli, gene for the full-length protein amplified from DH5alpha cells; residues 21-31 disordered in the crystal. numbers count on: the mature protein; Hexa-histidine tag introduced after the C-terminal residue; no cleavage is described; also called outer membrane factor (OMF) protein CusC; source: E. coli C43 (DE3), over-expressed, purified from membranes (nickel column, …)) CSLAPDYQRPAMPVPQQFSLSQNGLVNAADNYQNAGWRTFFVDNQVKTLISEALVNNRDLRMATLKVQEARAQYRLTDADRYPQLNGEGSGSWSGNLKGNTATTREFSTGLNASFDLDFFGRLKNMSEAERQNYLATEEAQRAVHILLVSNVAQSYFNQQLAYAQLQIAEETLRNYQQSYAFVEKQLLTGSSNVLALEQARGVIESTRSDIAKRQGELAQANNALQLLLGSYGKLPQAQTVNSDSLQSVKLPAGLSSQILLQRPDIMEAEHALMAANANIGAARAAFFPSISLTSGISTASSDLSSLFNASSGMWNFIPKIEIPIFNAGRNQANLDIAEIRQQQSVVNYEQKIQNAFKEVADALALRQSLNDQISAQQRYLASLQITLQRARALYQHGAVSYLEVLDAERSLFATRQTLLDLNYARQVNEISLYTALGGG",stoichiometry N,3
